Test results as given in the supplement of paper PMC11811203.

B1: THAP1; numbered along this chain (parent)
chain: MVQSCSAYGCKNRYDKDKPVSFHKFPLTRPSLCKEWEAAVRRKNFKPTKYSSICSEHFTPDCFKRECNNKLLKENAVPTIFLCTEPHDKKEDLLEPQEQLPPPPLPPPVSQVDAAIGLLMPPLQTPVNLSVFCDHNYTVEDTMHQRKRIHQLEQQVEKLRKKLKTAQQRCRRQERQLEKLKEVVHFQKEKDDVSERGYVILPNDYFEIVEVPA

Variants of: B1
Assay: THAP1 transcriptional activity (GFP+/GFP- enrichment relative to wild-type constructs) (ratio to WT); higher = more THAP1 activity (PSMB5 reporter activation)
Settings: with PSMB5 promoter-GFP reporter
How it was run: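 Activity values are replicate-mean bright/dim read fold changes divided by the mean of wild-type synonymous constructs. They come from a human THAP1 site-saturation library (residues 2–213, each changed to all 20 amino acids) delivered by lentivirus at MOI ~0.3, in duplicate, into THAP1-knockout HEK-293T cells with mClover3 at endogenous PSMB5. BFP+ cells were sorted into GFP-dim and GFP-bright bins after five days, and variants were counted by Illumina sequencing of genomic DNA amplicons.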

THAP1 transcriptional activity, by site and new letter:
E174: Q 1.26, F 0.564, C 1.18, K 0.794, T 0.836, H 0.817, G 0.535, L 1.03, R 1.48
L180: Q 0.399, M 0.868, W 0.575, S 0.482, P 0.166, R 0.417, D 0.256, C 0.43, N 0.473, V 0.58, I 0.806, A 0.484, Y 0.439, K 0.367
L163: V 0.545, P 0.149, S 0.142, E 0.196, F 0.23, R 0.163, K 0.168, Q 0.17, G 0.179, I 0.488, A 0.118, T 0.195, N 0.134, H 0.178, W 0.188, C 0.422, D 0.0892
E182: A 0.871
A166: R 0.328, G 0.258, V 0.718, T 0.965, M 0.882, H 0.35, Y 0.705, D 0.217, N 0.382, P 0.211, E 0.448, C 1.14, W 0.485, L 0.89
L177: Y 0.528, R 0.3, T 0.255, V 0.404, H 0.327, N 0.361, W 0.263, D 0.233, S 0.206, Q 0.191, A 0.268, K 0.328, I 0.925, C 0.369, P 0.192, F 0.408
R172: H 0.458, G 0.234, D 0.201, L 0.328, A 0.396, S 0.428, E 0.34, Q 0.364, W 0.267, C 0.157, I 0.34, P 0.241, F 0.247, Y 0.252, K 0.684, N 0.41, V 0.288
Q167: K 0.613, L 0.245, F 0.28, D 0.239, P 0.13, H 0.575, N 0.559, S 0.649, T 0.585, M 0.699, A 0.311, W 0.235, G 0.21, E 0.37, R 0.415, V 0.351
R171: D 0.228, S 0.173, G 0.285, M 0.36, E 0.218, P 0.186, K 0.627, N 0.229, L 0.314, H 0.344, W 0.258, V 0.142, T 0.172, I 0.359, C 0.256
R160: V 0.339, Y 0.263, Q 0.492, W 0.309
K181: M 0.542, C 0.297, L 0.421, D 0.296, Q 0.514, G 0.53, E 0.582, V 0.316, S 0.298, N 0.511, Y 0.36, H 0.478, W 0.418, P 0.152, T 0.491, R 0.964
Q176: K 1.54, W 0.223, I 0.557, V 0.499, R 1.1, A 0.567, N 0.518, D 0.41, C 0.538, L 0.707, P 0.259, G 0.189, S 0.434, H 0.546
R169: C 0.292, D 0.239, Y 0.183, Q 0.379, L 0.45, F 0.246, W 0.138, H 0.531, S 0.262, M 0.388, G 0.181, V 0.347, A 0.297, P 0.132
